Experimental findings from patent US20250027068A1 are described below.

The chains are these.
B1: VRT-27 (Fc fusion)
chain: VTSVWTKGVTPPADFTQGEDVFHAPYVANQGWYDITKTFNGKDNLLCGAATAGNMLHWWFDQNKEYIEAYLKKHPEKQKIIFGDQELLDVRKAINTKGSQKNSELFNYFRDKAFPNLSARRLGVFPDLVLDMFINGYYLNVTKTQTTDVNRTYQEKDKRGGIFDAVFTRGVQSKLLTSRHDFKEKGLKEISDLIKQELTEGKALGLSHTYANVRINHVINLWGADFDSDGNLKAIYVTDSDTNASIGMKKYFVGVNSAGKVAISAKEIKEDNIGAQVLGLFTLSTGQDIWNQTNDKTHTCPPCPAPEAAGAPSVFLFPPKPKDTLMISRTPEVTCVVVDVSHEDPEVKFNWYVDGVEVHNAKTKPREEQQNSTYRVVSVLTVLHQDWLNGKEYKCKVSNKALKAPIEKTISKAKGQPREPQVYTLPPSRDELTKNQVSLTCLVKGFYPSDIAVEWESNGQPENNYKTTPPVLDSDGSFFLYSKLTVDKSRWQQGNVFSCSVMHEALHNHYTQKSLSLSPG
B2: VRT-24 (Fc fusion)
chain: VTSVWTKGVTPPANFTQGEDVFHAPYKANQGWYDITKTFNGKDNLLCGAATAGNMLHWWFDQNKDQIEAYLKEHPEKQKINFNGEQLFDVKEAIDTKDDQTNSKLFEYFKEKAFPYLSTKHLGVFPDHVLDMFINGYRLSLTNHGPTPVKEGSKDKRGGIFDAVFTRGVQSKLLTSRHDFKEKTLKEISDLIKQELTEGKALALSHTYANVRINHVINLWGADFDSNGNLEAIYVTDSDTNASIGMKKYFVGVNSAGKVAISAKEIEDDNIGAQVLGLFTLSTGQDIWNQTNDKTHTCPPCPAPEAAGAPSVFLFPPKPKDTLMISRTPEVTCVVVDVSHEDPEVKFNWYVDGVEVHNAKTKPREEQQNSTYRVVSVLTVLHQDWLNGKEYKCKVSNKALKAPIEKTISKAKGQPREPQVYTLPPSRDELTKNQVSLTCLVKGFYPSDIAVEWESNGQPENNYKTTPPVLDSDGSFFLYSKLTVDKSRWQQGNVFSCSVMHEALHNHYTQKSLSLSPG
B3: VRT-25 (Fc fusion)
chain: VTSVWTKGVTPPANFTQGEDVFHAPYVANQGWYDITKTFNGKDNLLCGAATAGNMLHWWFDQNKDQIERYLKEHPEKQKINFNGEQLFDVKEAIDTKDSQTDSKLFEYFKEKAFPYLSTKHLGVFPDHVLDMFINGYRLSLTNHGPTPVKEGSKDKRGGIFDAVFTRGVQSKLLTSRHDFKEKTLKEISDLIKQELTEGKALGLSHTYANVRINHVINLWGADFDSEGNLKAIYVTDSDTNASIGMKKYFVGVNSAGKVAISAKEIKEDNIGAQVLGLFTLSTGQDIWNQTNDKTHTCPPCPAPEAAGAPSVFLFPPKPKDTLMISRTPEVTCVVVDVSHEDPEVKFNWYVDGVEVHNAKTKPREEQQNSTYRVVSVLTVLHQDWLNGKEYKCKVSNKALKAPIEKTISKAKGQPREPQVYTLPPSRDELTKNQVSLTCLVKGFYPSDIAVEWESNGQPENNYKTTPPVLDSDGSFFLYSKLTVDKSRWQQGNVFSCSVMHEALHNHYTQKSLSLSPG
B4: VRT-28 (Fc fusion)
chain: ITSVWTKGVTPPAKFTQGEDVFHAPYVANQGWYDITKTFNGKDNLLCGAATAGNMLHWWFDQNKEEIEAYLKKHPEKQKIIFGDQELLDVRKVINTKDSQTNSALFNYFKDKAFPNLSARRLGVFPDLVLDMFINGYYLNVYKTQTTDVNRTYQTKDRRGGIFDAVFTRGVQSKLLTERHDFKEKTLKEISDLIKQELTEGKALGLSHTYANVRINHVINLWGADFDSNGNLEAIYVTDSDTNASIGMKKYFVGVNSAGKVAISAKEIKEDNIGAQVLGLFTLSTGQDIWNQTNDKTHTCPPCPAPEAAGAPSVFLFPPKPKDTLMISRTPEVTCVVVDVSHEDPEVKFNWYVDGVEVHNAKTKPREEQQNSTYRVVSVLTVLHQDWLNGKEYKCKVSNKALKAPIEKTISKAKGQPREPQVYTLPPSRDELTKNQVSLTCLVKGFYPSDIAVEWESNGQPENNYKTTPPVLDSDGSFFLYSKLTVDKSRWQQGNVFSCSVMHEALHNHYTQKSLSLSPG
B5: VRT-30 (Fc fusion)
chain: QITSVWTKGVTPPTPEQFRYNNEDVIHAPYLANQGWYDITKTFNGKDNLLCGAATAGNMLHWWFDQNKTEIEAYLSKHPEKQKIIFNNQELFDLKAAIDTKDSQTNSQLFNYFRDKAFPGLSARQLGVFPDLVLDMFINGYYLNVFKTQSTDVNRPYQDKDKRGGIFDAVFTRGVQTTLLTARHDLKNKTLNDISTLIKQELTEGKALALSHTYANVRISHVINLWGADFNAEGNLEAIYVTDSDANASIGMKKYFVGVNAHGKVAISAKKIEGENIGAQVLGLFTLSSGKDIWQKLSDKTHTCPPCPAPEAAGAPSVFLFPPKPKDTLMISRTPEVTCVVVDVSHEDPEVKFNWYVDGVEVHNAKTKPREEQQNSTYRVVSVLTVLHQDWLNGKEYKCKVSNKALKAPIEKTISKAKGQPREPQVYTLPPSRDELTKNQVSLTCLVKGFYPSDIAVEWESNGQPENNYKTTPPVLDSDGSFFLYSKLTVDKSRWQQGNVFSCSVMHEALHNHYTQKSLSLSPG
B6: VRT-31 (Fc fusion)
chain: QITSVWTKGVTPLTPEQFRYNNEDVIHAPYLANQGWYDITKTFNGKDNLLCGAATAGNMLHWWFDQNKTEIEAYLKKHPEKQKIIFNNQELFDLKAAIDTKDSQTNSQLFNYFRDKAFPGLSARQLGVFPDLVLDMFINGYYLNVFKTQSTDVNRPYQDKDKRGGIFDAVFTRGVQTTLLTARHDLKNKGLNEISTLIKQELTEGKALALSHTYANVRISHVINLWGADFNAEGNLEAIYVTDSDSNASIGMKKYFVGVNAHGKVAISAKKIEGENIGAQVLGLFTLSSGKDIWQKLSDKTHTCPPCPAPEAAGAPSVFLFPPKPKDTLMISRTPEVTCVVVDVSHEDPEVKFNWYVDGVEVHNAKTKPREEQQNSTYRVVSVLTVLHQDWLNGKEYKCKVSNKALKAPIEKTISKAKGQPREPQVYTLPPSRDELTKNQVSLTCLVKGFYPSDIAVEWESNGQPENNYKTTPPVLDSDGSFFLYSKLTVDKSRWQQGNVFSCSVMHEALHNHYTQKSLSLSPG
B7: VRT-26 (Fc fusion)
chain: VTSVWTKGVTPPTNFTYGEDVLHAPYVANQGWYDITKTFNGKDNLLCGAATAGNMLHWWFDQNKEQIENYLKKHPEKQKINFNGEQLFDVKEAIDTKDSQLDSKLFEYFKEKAFPYLSTKHLGVFPDHVIDMFINGYRLSLTNHGPTPVKRGSKDKRGGIFDAVFTRGVQSKLLTNRHDFKEKTLKEISDLIKQELTEGKALGISHTYANVRINHVINLWGADFDAEGNLEAIYVTDSDTNASIGMKKYFVGVNSNGKVAISAKEIEEDNIGAQVLGLFTLSTGQDIWNQTNDKTHTCPPCPAPEAAGAPSVFLFPPKPKDTLMISRTPEVTCVVVDVSHEDPEVKFNWYVDGVEVHNAKTKPREEQQNSTYRVVSVLTVLHQDWLNGKEYKCKVSNKALKAPIEKTISKAKGQPREPQVYTLPPSRDELTKNQVSLTCLVKGFYPSDIAVEWESNGQPENNYKTTPPVLDSDGSFFLYSKLTVDKSRWQQGNVFSCSVMHEALHNHYTQKSLSLSPG
B8: VRT-23 (Fc fusion)
chain: SQTEDSESLQRLRDIEDFQAEKKMQNVVYTKWLDGVDVKDHDFRKIVDGNIAYYATPLLNGRGFYDINKDFNRDNDKCAAAVAANMFHYWLDINRDNVDRFLRQNPEKHGIIELPDEQLKLSDFLNTYESDHGYRDKSKLFDFISNNFNKPVWTDKLLDNYINGYAYNYKYGRTIEDSTKNTSKINFFKEVFNEKILTNIHSIRNQNEFSVLLSEALYTGKAIGLSYGPAGLRHSLGHIISVWGADLDADGNVVAIYVTDSDDKKLTIGDERVGLKRYKISTDDENRLRLTAYEETHNTGGQIRGLWTLDTGKYAWADYFDKTEQTGTDQAEQDKTHTCPPCPAPEAAGAPSVFLFPPKPKDTLMISRTPEVTCVVVDVSHEDPEVKFNWYVDGVEVHNAKTKPREEQQNSTYRVVSVLTVLHQDWLNGKEYKCKVSNKALKAPIEKTISKAKGQPREPQVYTLPPSRDELTKNQVSLTCLVKGFYPSDIAVEWESNGQPENNYKTTPPVLDSDGSFFLYSKLTVDKSRWQQGNVFSCSVMHEALHNHYTQKSLSLSPG
B9: VRT-22 (Fc fusion)
chain: QITSVWTKGVTPLTPEQFRYYNEDVIHAPYLAHQGWYDITKAFDGKDNLLCGAATAGNMLHWWFDQNKTEIEAYLSKHPEKQKIIFKNQELFDLKAAIDTKDSQTNSQLFNYFRDKAFPGLSARQLGVFPDLVLDMFINGYYLNVFKTQSTDVNRPYQDKDKRGGIFDAVFTRGVQTTLLTARHDLKNKGLNDISTIIKQELTEGRALALSHTYANVRISHVINLWGADFNAEGNLEAIYVTDSDTRASIGMKKYFVGINAHGHVAISAKKIEGENIGAQVLGLFTLSSGKDIWQKLSDKTHTCPPCPAPEAAGAPSVFLFPPKPKDTLMISRTPEVTCVVVDVSHEDPEVKFNWYVDGVEVHNAKTKPREEQQNSTYRVVSVLTVLHQDWLNGKEYKCKVSNKALKAPIEKTISKAKGQPREPQVYTLPPSRDELTKNQVSLTCLVKGFYPSDIAVEWESNGQPENNYKTTPPVLDSDGSFFLYSKLTVDKSRWQQGNVFSCSVMHEALHNHYTQKSLSLSPG

The target in this experiment is pooled human IgG (human). The experiment in a line: cell-based or functional assay.
On to B1, for which the Enzyme Activity Endpoint Assay: Fab′2 was 0 ng/µL, the Enzyme Activity Endpoint Assay: Fc turned out to be 92 ng/µL, the Enzyme Activity Endpoint Assay: IgG was 1150 ng/µL and the Enzyme Activity Endpoint Assay: scIgG worked out at 33 ng/µL.
In turn, B2 registered an Enzyme Activity Endpoint Assay: Fab′2 of 0 ng/µL, an Enzyme Activity Endpoint Assay: Fc of 187 ng/µL, an Enzyme Activity Endpoint Assay: IgG of 392 ng/µL and an Enzyme Activity Endpoint Assay: scIgG of 249 ng/µL.
Regarding B3, the Enzyme Activity Endpoint Assay: Fab′2 came out at 12 ng/µL, the Enzyme Activity Endpoint Assay: Fc was 204 ng/µL, the Enzyme Activity Endpoint Assay: IgG was determined as 183 ng/µL and the Enzyme Activity Endpoint Assay: scIgG stood at 284 ng/µL.
For B4 the same measures were 0 ng/µL, 3 ng/µL, 987 ng/µL and 22 ng/µL.
B5 displayed an Enzyme Activity Endpoint Assay: Fab′2 of 0 ng/µL, an Enzyme Activity Endpoint Assay: Fc of 46 ng/µL, an Enzyme Activity Endpoint Assay: IgG of 986 ng/µL and an Enzyme Activity Endpoint Assay: scIgG of 22 ng/µL.
For B6 the same measures were 0 ng/µL, 27 ng/µL, 1020 ng/µL and 21 ng/µL.
For B7 the same measures were 0 ng/µL, 213 ng/µL, 303 ng/µL and 342 ng/µL.
With B8, the Enzyme Activity Endpoint Assay: Fab′2 was found to be 0 ng/µL, the Enzyme Activity Endpoint Assay: Fc worked out at 29 ng/µL, the Enzyme Activity Endpoint Assay: IgG was 1010 ng/µL and the Enzyme Activity Endpoint Assay: scIgG came to 20 ng/µL.
For B9 the same measures were 0 ng/µL, 31 ng/µL, 1010 ng/µL and 21 ng/µL.
